In PMC3861672:

Biological target: Fps1 (UniProt P23900)
Test: BiFC, split CFP
Details: reference: no sorbitol

Hog1 (from UniProt P32485) 1 M sorbitol, 5 min
other: percent of cells with detectable fluorescence: stronger; reference 27.6
